In patent publication US20260217863:

Legend:
[1] = molecular target: Fv-3, expressed soluble Fv antibody of clone 39 (His-tag-TdTomato-VH)
[2] = molecular target: T1, Fv-1, expressed soluble Fv antibody of clone 5 (His-tag-TdTomato-VH)
T1 chain: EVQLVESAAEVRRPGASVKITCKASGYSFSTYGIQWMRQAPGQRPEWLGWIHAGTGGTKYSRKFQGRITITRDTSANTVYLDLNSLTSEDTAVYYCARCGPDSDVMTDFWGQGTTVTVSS

[3] = molecular target: T2, Fv-2, expressed soluble Fv antibody of clone 23 (His-tag-TdTomato-VH)
T2 chain: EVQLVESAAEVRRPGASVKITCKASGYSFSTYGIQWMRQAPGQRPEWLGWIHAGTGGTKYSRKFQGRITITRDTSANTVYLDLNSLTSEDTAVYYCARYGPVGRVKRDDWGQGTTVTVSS

B1: Ribonuclease A (Type II-A) from bovine pancreas (protein)
chain: KETAAAKFERQHMDSSTSAASSSNYCNQMMKSRNLTKDRCKPVNTFVHESLADVQAVCSQKNVACKNGQTNCYQSYSTMSITDCRETGSSKYPNCAYKTTQANKHIIVACEGNPYVPVHFDASV
Q: For B1, which “cleavage of HeLa total RNA by RNase A (0.7 µg/ml), agarose gel, Fv antibody at 10 µM” value (“cleavage of HeLa total RNA” for short) [1] is on record?
A: Its value is “it was observed that the cleavage reaction of RNase A was completely inhibited”.

Q: What about the “cleavage of HeLa total RNA” value [2] of the same protein?
A: The value was “it was observed that the cleavage reaction of RNase A was completely inhibited”.

Q: What about the “stated: RNase A removed from the solution by Fv-1-beads (RNA cleavage read on an agarose gel)” value [2] of the same protein?
A: The value was “After Fv-Bead treatment: all four lanes (+ to ++++, + : 250 ng Fv-1-bead, RNase A 10 ng) keep faint RNA in the dashed box at about 1000-1500 bp like lane 0, marked 'RNA cleavage inhibition'. Before treatment (no bead) the four RNase A lanes show only a smear near 250 bp”.

Q: What about the “cleavage of HeLa total RNA” value [3] of the same protein?
A: The value was “it was observed that the cleavage reaction of RNase A was completely inhibited”.

Q: What about the “stated: RNase A removed from the solution by Fv-2-beads (RNA cleavage read on an agarose gel)” value [3] of the same protein?
A: The value was “After Fv-Bead treatment: all four lanes (+ to ++++, + : 250 ng Fv-2-bead, RNase A 10 ng) keep both RNA bands (in the dashed box at about 1000-1500 bp and near 600 bp) like lane 0, marked 'RNA cleavage inhibition'. Before treatment (no bead) the four RNase A lanes have no band in the box”.
